Test results reported in IntAct's records for PubMed 11956294.

B1: Inducible T-cell costimulator (Homo sapiens), Q9Y6W8 (parent)
chain: MKSGLWYFFLFCLRIKVLTGEINGSANYEMFIFHNGGVQILCKYPDIVQQFKMQLLKGGQILCDLTKTKGSGNTVSIKSLKFCHSQLSNNSVSFFLYNLDHSHANYYFCNLSIFDPPPFKVTLTGGYLHIYESQLCCQLKFWLPIGCAAFVVVCILGCILICWLTKKKYSSSVHDPNGEYMFMRAVNTAKKSRLTDVTL
partner: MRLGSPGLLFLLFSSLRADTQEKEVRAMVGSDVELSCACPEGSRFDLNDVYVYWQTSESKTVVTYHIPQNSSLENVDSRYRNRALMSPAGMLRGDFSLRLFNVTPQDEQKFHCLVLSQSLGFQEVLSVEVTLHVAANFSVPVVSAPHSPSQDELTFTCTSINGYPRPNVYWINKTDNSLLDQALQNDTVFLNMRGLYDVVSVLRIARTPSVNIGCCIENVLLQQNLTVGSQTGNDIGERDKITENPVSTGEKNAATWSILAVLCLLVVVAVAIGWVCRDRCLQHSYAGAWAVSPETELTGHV

Variants of: B1
Details: with icosl_human ICOSLG

Row | effect of a mutation on the interaction | Variant
1 | disrupting interaction strength | MKSGLWYFFLFCLRIKVLTGEINGSANYEMFIFHNGGVQILCKYPDIVQQSKMQLLKGGQILCDLTKTKGSGNTVSIKSLKFCHSQLSNNSVSFFLYNLDHSHANYYFCNLSIFDPPPFKVTLTGGYLHIYESQLCCQLKFWLPIGCAAFVVVCILGCILICWLTKKKYSSSVHDPNGEYMFMRAVNTAKKSRLTDVTL
2 | increasing interaction strength | MKSGLWYFFLFCLRIKVLTGEINGSANYEMFIFHNGGVQILCKYPDIVQQFSMQLLKGGQILCDLTKTKGSGNTVSIKSLKFCHSQLSNNSVSFFLYNLDHSHANYYFCNLSIFDPPPFKVTLTGGYLHIYESQLCCQLKFWLPIGCAAFVVVCILGCILICWLTKKKYSSSVHDPNGEYMFMRAVNTAKKSRLTDVTL
3 | decreasing interaction strength | MKSGLWYFFLFCLRIKVLTGEINGSANYEMFIFHNGGVQILCKYPDIVQQFKMQLLKGGQILCSLTKTKGSGNTVSIKSLKFCHSQLSNNSVSFFLYNLDHSHANYYFCNLSIFDPPPFKVTLTGGYLHIYESQLCCQLKFWLPIGCAAFVVVCILGCILICWLTKKKYSSSVHDPNGEYMFMRAVNTAKKSRLTDVTL
4 | disrupting interaction strength | MKSGLWYFFLFCLRIKVLTGEINGSANYEMFIFHNGGVQILCKYPDIVQQFKMQLLKGGQILCDLTKTSGSGNTVSIKSLKFCHSQLSNNSVSFFLYNLDHSHANYYFCNLSIFDPPPFKVTLTGGYLHIYESQLCCQLKFWLPIGCAAFVVVCILGCILICWLTKKKYSSSVHDPNGEYMFMRAVNTAKKSRLTDVTL
5 | disrupting interaction strength | MKSGLWYFFLFCLRIKVLTGEINGSANYEMFIFHNGGVQILCKYPDIVQQFKMQLLKGGQILCDLTKTKGSGNTVSIKSLKFCHSQLSNNSVSFFLYNLDHSHANYYFCNLSIFDPSPFKVTLTGGYLHIYESQLCCQLKFWLPIGCAAFVVVCILGCILICWLTKKKYSSSVHDPNGEYMFMRAVNTAKKSRLTDVTL
6 | disrupting interaction strength | MKSGLWYFFLFCLRIKVLTGEINGSANYEMFIFHNGGVQILCKYPDIVQQFKMQLLKGGQILCDLTKTKGSGNTVSIKSLKFCHSQLSNNSVSFFLYNLDHSHANYYFCNLSIFSPPPFKVTLTGGYLHIYESQLCCQLKFWLPIGCAAFVVVCILGCILICWLTKKKYSSSVHDPNGEYMFMRAVNTAKKSRLTDVTL
7 | disrupting interaction strength | MKSGLWYFFLFCLRIKVLTGEINGSANYEMFIFHNGGVQILCKYPDIVQQFKMQLLKGGQILCDLTKTKGSGNTVSIKSLKFCHSQLSNNSVSFFLYNLDHSHANYYFCNLSIFDPPPSKVTLTGGYLHIYESQLCCQLKFWLPIGCAAFVVVCILGCILICWLTKKKYSSSVHDPNGEYMFMRAVNTAKKSRLTDVTL
8 | disrupting interaction strength | MKSGLWYFFLFCLRIKVLTGEINGSANYEMFIFHNGGVQILCKYPDIVQQFKMQLLKGGQILCDLTKTKGSGNTVSIKSLKFCHSQLSNNSVSFFLYNLDHSHANYYFCNLSISDPPPFKVTLTGGYLHIYESQLCCQLKFWLPIGCAAFVVVCILGCILICWLTKKKYSSSVHDPNGEYMFMRAVNTAKKSRLTDVTL
9 | decreasing interaction strength | MKSGLWYFFLFCLRIKVLTGEINGSANYEMFIFHNGGVQILCKYPDIVQSFKMQLLKGGQILCDLTKTKGSGNTVSIKSLKFCHSQLSNNSVSFFLYNLDHSHANYYFCNLSIFDPPPFKVTLTGGYLHIYESQLCCQLKFWLPIGCAAFVVVCILGCILICWLTKKKYSSSVHDPNGEYMFMRAVNTAKKSRLTDVTL
10 | increasing interaction strength | MKSGLWYFFLFCLRIKVLTGEINGSANYEMFIFHNGGVQILCKYPDIVQQFKMQLLKGGQILCDLTKTKGSGNTVEIKSLKFCHSQLSNNSVSFFLYNLDHSHANYYFCNLSIFDPPPFKVTLTGGYLHIYESQLCCQLKFWLPIGCAAFVVVCILGCILICWLTKKKYSSSVHDPNGEYMFMRAVNTAKKSRLTDVTL
11 | decreasing interaction strength | MKSGLWYFFLFCLRIKVLTGEINGSANYEMFIFHNGGVQILCKYPDIVSQFKMQLLKGGQILCDLTKTKGSGNTVSIKSLKFCHSQLSNNSVSFFLYNLDHSHANYYFCNLSIFDPPPFKVTLTGGYLHIYESQLCCQLKFWLPIGCAAFVVVCILGCILICWLTKKKYSSSVHDPNGEYMFMRAVNTAKKSRLTDVTL
12 | disrupting interaction strength | MKSGLWYFFLFCLRIKVLTGEINGSANYEMFIFHNGGVQILCKYPDIVQQFKMQLLKGGQILCDLTSTKGSGNTVSIKSLKFCHSQLSNNSVSFFLYNLDHSHANYYFCNLSIFDPPPFKVTLTGGYLHIYESQLCCQLKFWLPIGCAAFVVVCILGCILICWLTKKKYSSSVHDPNGEYMFMRAVNTAKKSRLTDVTL
